Assay: soluble fraction after stress (log2 fold change); higher = more stays soluble; pooled small domains, quantitative proteomics
Conditions: stress: 50 degC
Outline: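 Pooled custom libraries of small protein domains were measured in a high-throughput format, with quantitative proteomics as the read-out. Each library was stressed at 50°C. Aggregation propensity is given as the base-two logarithm of the fold change in how much of each protein stays soluble after the stress. Higher values mean a larger share of the protein remains in solution.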

First: HMVIMDLIVNGEPKYVVGEQLHLILDELGYSGKHFVVELNGEILSKEAYTTTKLTAADRLEIVSFVGG
Second: HMNKKEIISVLEKIIPPSQIKNINIFGSELVIDLNIDNPSLHAKKKLEKSIMSSFDENLKIIVNFSVE
The “soluble fraction (log2)” value of the first is lower: -3.5 for the first, -0.00924 for the second.

First: HMAEMLQDVLNMLSAKDREILVRYYYYYESVKQVAAEMQMSESAVKMRMSRARKKMQQELIDKG
Second: HMQYFDIETEIQKFIKSENNLSDFDKETLQSFLYQLSKGSPEENTAKKVVDILNKFLPLTTAIINMIKALT
The “soluble fraction (log2)” value of the first is lower: -3.59 for the first, 0.168 for the second.

First: HMGVSDDMARGVVRARQFLSDFAAVPLDRMTPAEAVARARQLKSELETDAKHSPWLLDVLSNA
Second: HMDEKLAHKLVSDFRQAAASLERFPFRNPVLRSEVFTVEKYRKLVFDKYHILLYQVKDQVVYVEYVIDGRQ
The “soluble fraction (log2)” value of the first is higher: -0.0848 for the first, -0.75 for the second.

“HMFTEIMAERNALIQAIQQNLPPQHIQSILSKKNKFRLEDLTNEELRDVWQWILNQRQAQQHQQQ” and “HMDPKWSHVRRLLDDENPIVRKALTEELIRSPEEGLAFLEQVIREPDHLLAKHAHNLLSELGWV” are within 0.2 log units of each other in “soluble fraction (log2)” value: -0.171 for the first, 0.0264 for the second.

First: HMPPDLSEAIQKRIEGKTDEALEILRKLYNEYPESTEIITMLGRTLLDAEEYALAAFRLEQALDLGG
Second: HMGVGVPVTLLLEKLGEDTLSAQQIMERLGLKSRASFRKVYLVPALEQKLIEMEFPDKPNSSKQRYRR
The “soluble fraction (log2)” value of the first is higher: -0.569 for the first, -0.853 for the second.

Compared with “HMGFALLIAIERTGNTTYFVKLTLIKKGSDSDVLKDSFSVSQGDLVGTATYDSVIANRIREKTAAMWQKAT”, “HMEKILSYKALMNDAGKRIDQFLANNEKDISRTRIKSLILEGSLKLDNNIINDPSYKIKENDVFTLFIPEA” is higher in “soluble fraction (log2)” value: -2.13 for the first, -0.429 for the second.

“HMAEPSTSYTQFMDQAKEGKIKRVDVQGRTLTVTPTEGATYKITAPGDLWMVEDLRKAGVQVYGQP” and “HMANSANARKSLVSKLIAGGKIASQSDLVKALKKQGIVVTQGTASRDLEDIGAIRVRNSEGEIVYALT” are within 0.2 log units of each other in “soluble fraction (log2)” value: 0.207 for the first, 0.081 for the second.

“HMSGIVPAAPPLRPDLDIKWHTGDKVRHAKWGEGTIVSVKGEGEETELKIAFPGQGIRPFMQKYAPITR” and “HMVKDLEIETIRLNNLLASDAEEVLKSLGGAKPTYKAVAVPGSNSLVIEGTKADLIKLKSIINALEDGS” are within 0.2 log units of each other in “soluble fraction (log2)” value: 0.163 for the first, 0.0941 for the second.

First: HMNKQEFLNTLRIIFKKANVLDVESIIDVYEEHFAVGYEKGLNDEQIIKSLGTPKEIYTSYVEAGI
Second: HMNGVFIMHTPDGKVLRTEEGEEAVITLFNWSGQLLWSKTSLGQLPLPEGTQGVLQVQYKSGDQHTIKT
The “soluble fraction (log2)” value of the first is lower: -0.615 for the first, -0.267 for the second.

“HMSYDAINGYEPSDLRGSLTLEQTASMLNLPLTDVYARLGLPANYPSGATLKDGAADMGMGLSDFKHQLF” and “HMKPGWEDIFRMNQIQLEDAVRTVNRDDTLAPTKKAYLIQNLLASRWIVGNQLQAQKDKTTE” are within 0.2 log units of each other in “soluble fraction (log2)” value: -0.0605 for the first, -0.0813 for the second.

“HMIAITVGSKVRVKAGATFSDGTKPFTEVYNTVYDVQLLSRNGKEARIGIGEQWTGWMYISDLYPADQ” and “HMSLPTSDWKRALSLFDEALSLPPDARDAWLAHTIAREPAVSPLLQKLLGAHRRVETNDILATLPR” are within 0.2 log units of each other in “soluble fraction (log2)” value: -0.359 for the first, -0.286 for the second.

Going from “HMEELGKVRPELDGNEIAKVLGITPGPVLGRAYTYLLSVRLDEGPIGPDVARERLLAWWAEQPES” to “HMVSAEQNTLEFIKENVKEDVIEDDIEFYKSLLEDWSVEVDNSSKLLDPGNNNSLLAVIAYSIENEL”, the “soluble fraction (log2)” value rises from -1.28 to -0.0399.

Going from “HMSEFAYPISLNGKTKFNLALSLALTKEEIEKEVLANADVQKFLNGQTPKKLIVVPGKIVNVV” to “HMIMPSDATEAKLLGVLGNEPLHVDEIRNQAELPIEKVSAALALMELKGMVRQVGGMNYVAVR”, the “soluble fraction (log2)” value rises from -0.322 to 0.117.

“HMTAVAAEQQAQDAYRQTAANNLNEIQAKYKLPDSESDDFFTFAYERGFTQEDFIDIGLVDKIMGDYV” and “HMGEVVSAPMPGTILSIKVSQGQTVKRGQVLLILEAMKMENEIVAPRDGVVVQISTTQGASVETGAPLVVL” are within 0.2 log units of each other in “soluble fraction (log2)” value: 0.0927 for the first, -0.0677 for the second.

Going from “HMIQLKEHDVVRLRETIVENDEKIPAGTRGVVLSVYDGGRAFAVEVADDRAASAIITAFRDQLEVY” to “HMKITAPLPGTITEIKVKVGDTVKNGDTVVVLEAMKMQNNIEAESNGTVTAIFVNKGDTVMEGDALMTI”, the “soluble fraction (log2)” value rises from -0.136 to 0.14.

“HMAVQPMDQVKAWLAEDNPADIKLLVPVLQKLDLLDYEQVRGEVADRAGVRKSLLDEAVKGN” and “HMGDAVYSKVKDLVNTYNALAKQTGKSDLVSISQSRTWMVNDTKAHEVQWNKIGITIEDDQTLTI” are within 0.2 log units of each other in “soluble fraction (log2)” value: 0.0999 for the first, 0.179 for the second.

Compared with “HMTSPVEDLLDKAIQLYREENFEEAIAKWEEVLALDPSKLEAKFNIEIAQDRIKEKQIQEDLKSS”, “HMTEKSTRSVPQEHEGKRLDVAAALLFPVYSRSELARRIDAGYLLLNGKGSTPKTKVHELDLIELLEV” is lower in “soluble fraction (log2)” value: 0.0629 for the first, -0.341 for the second.

“HMIDELLDPTHRIMVRHPRVDYVSPGFLIGPDKDVILWGFTGGIIARLFDFLGWTRPWDQSHVQDLPPYML” and “HMQIIETTVGRVLFNEKVPEAAGYINEVLTKKSLRDIIHGILKKTSVPETAAFLDEIKSLGYNFAF” are within 0.2 log units of each other in “soluble fraction (log2)” value: -0.202 for the first, -0.066 for the second.

Compared with “HMDSNISVSEALEMVDKGSVKEIIVEGEKLYITNQDGKQYTSSKEVGVSLIELMKDSGIDPIKSDVNIIVK”, “HMRTNNEITSYKLKSGKKRWKFQTYLGLDDKGQKVSVTRQGFRTYNEAISEYNKLRAQGTQGYQ” is lower in “soluble fraction (log2)” value: 0.214 for the first, -0.355 for the second.

“HMKNEQIFIVRPDAEGTRLDQWLAAQMASSEEAPSRMQIQRWIKAGLVEGQGTLNPARRIEAGESYTVKPG” and “HMETYPINVETTGTNVLLRTGPSTSSNIIKTITDKGTVFLSIERGINSDWQKVVTPDGTIGYMSGKY” are within 0.2 log units of each other in “soluble fraction (log2)” value: 0.0493 for the first, 0.000612 for the second.

“HMRENAARNRNVNLDIGETLRVDAWSPERRARVQYRGAAWDVELAPNAPATVGEFRIVEVRGNVLVVTP” and “HMVPISGADFEKLSDYILQKAGAGSIQVKELLAGLKGMHEKNLWKAIDYLLAEEKIRIDKGGNISVK” are within 0.2 log units of each other in “soluble fraction (log2)” value: 0.0231 for the first, -0.00539 for the second.

First: HMNKDEFLNELKSYLSILEDEEQADILEEYTQHIDMKISTGLSEAEAIRDFGNVSELAAQILEAY
Second: HMFDLATVKRVAEEAGMKFTIHPVELRAAHPNTAVLTLKSKAGRILVLKAASVGGGRIRVTEIDGVPAD
The “soluble fraction (log2)” value of the first is higher: -0.222 for the first, -0.423 for the second.

Going from “HMQEPVYRPVFPGMTDADRQSAMEALKEGGFSPRLNRQTGQLEVDASGYHEAKIYLASQGIPAE” to “HMNHYIGVDRAKEIALNHANLSETDVVFTKEKLENDDGGAEYEIEFHSGRTEYDYTIDAASGNIIEYDVDY”, the “soluble fraction (log2)” value rises from 0.124 to 0.421.

“HMTFGEMLQYTNRLKEILESNAPQSIKDRRLANLMTDLEQAYGIPILRDQEFEKENPFLMQLYRTIS” and “HMADTFVMPDLVYRRYEPVRGYFERGGFHMGAVKFEPYEGISDGTILRQNPLPGHPLRRRDVISLVVAAS” are within 0.2 log units of each other in “soluble fraction (log2)” value: -2.06 for the first, -2.23 for the second.

Going from “HMPETYVVFSKDGYANLRRGTTINSEILDVLDNGEYVTKLDEVGEWYRVEYADFDGGYIHKSQLKNI” to “HMDPYLSGLLQKLAETDKKISFTRLRSEDLDGESREAIYEFIEKYSGRFGVRWLLNEFGLSPSVYYNYLHS”, the “soluble fraction (log2)” value falls from -0.252 to -0.741.

First: HMQSFIEELLPVVDNFERSLAVVDPSDEIKNFLKGYEMIYNQLMEVLKSQGVEVIKTEGEEFDPNFHQA
Second: HMDYEVPEELQQKFEEFPRLKEAFYQLTPGRQHQYLYYFSQAKRSQTRYNRIDKYMNAILQGKGMK
The “soluble fraction (log2)” value of the first is higher: 0.0366 for the first, -0.991 for the second.

“HMTETSKLTDAKQLLESILSSGEVSYKDIISAAEEYEIGKRTLMSAKALLSIESIKKTDGWYWTLPH” and “HMTNIDRLIGQTAIVKETINNKKEQGVVRINGMDWTARTEEIDEVILKGKPVEILDIQGIKLIVRKK” are within 0.2 log units of each other in “soluble fraction (log2)” value: -0.213 for the first, -0.153 for the second.

Going from “HMSVLNLQTDIPKKYTDVLGTSVKGRLNTLVHNVIINSVDRPVIQMSEEVHEAMQGLRIFMFENVYRNPV” to “HMINIDESIDESLSEDDAVLDLLERASASFTKAQEALLEGDLGRYQTLIEQADRLVAKALELLDEKN”, the “soluble fraction (log2)” value falls from 0.0658 to -0.457.

First: HMTKTEFLEALRRALNGNMAAASVEDNLKFYENYFYSEEAKGRSEAAVLSELGDPRILARTLIDAAER
Second: HMEENNIVIYITGAVKKEGIYEIKENSRISDAIEAAGGLLENANIKDINLAYIIEDGVKIYIPTNEEVNK
The “soluble fraction (log2)” value of the first is higher: 0.0765 for the first, -0.192 for the second.

Compared with “HMDGAPVTVIKNGEVDVATTMRVGLSASELMFKLRAAGVDEVQIVHRAVLEQNGQLTIIKYGEE”, “HMIDIGSKIKKLRSKKSIEIGKKYTGAMLANELGISRSYLGDIESGRTVPNEIILGKIADIFDVDIYELIG” is lower in “soluble fraction (log2)” value: 0.0259 for the first, -0.256 for the second.

Compared with “HMDMDRRALLLALINDRYHASVAEFARAINKAPAQVHQWLSGNRALGNAGARDIEIRLNLAQGYFDH”, “HMKLFGTPGSPFARKVRIVLEEKRIPHEYIIERGSAPGSRVPQYNPLGKVPTLVLDDGRGLYDSPVIVEYL” is higher in “soluble fraction (log2)” value: -1.91 for the first, -0.492 for the second.

First: HMGTIEQAFKGKAPGSAHLYDRARAVLAGGVTHDTRIHAPFPIMVQRALGARKWDVDGNEYIDY
Second: HMPYLVNGFILEVQSDDNNPVGTLKRRYAVAKNKQGVILLEGEKSFSSNDQILINELKFYIQSNDLKA
The “soluble fraction (log2)” value of the first is higher: 0.0863 for the first, -2.43 for the second.

Going from “HMLSVTLTVLPQQAGERLDAFAAAESTLSRSAAAKLIEDGQITVNGARAAKNYRLRAGDVIEIDEPEPI” to “HMDGFVFVMPIKETRMFSVNDERPLVGIVKYSNGEFEKEQLIGFRPNSEYEFIIEGQRLYRVPVNSITIK”, the “soluble fraction (log2)” value falls from 0.00149 to -0.886.

Going from “HMGPAYEKIVANGQTFYRYNVKKGEGLMAVSRTFNVSVNDILKYNPSAASGLKDGQELLIPVIDDA” to “HMAIDLPVTTVNGKDYYYYDVQPKETIFSLSQRLGISREEIISYNPGVDGGLKAYTRLYFPVESGL”, the “soluble fraction (log2)” value falls from 0.164 to -0.201.

Compared with “HMPSLAVYPNPVKDILNIATDKPVHSIRIYNVYGSEVLRAADTNRIDVSHLPAGVYMVSADGKVTRIIK”, “HMSFGWELYKGKEGIADTDLHPSGWIRIADKRVFAVSEGEFIEKGLEIIVLSVDGNRIVVRELK” is lower in “soluble fraction (log2)” value: -0.462 for the first, -1.39 for the second.

Going from “HMIEKVNDYVVRFANVNGTGSASANNLFALAIYRMGVPVTPKNIFPSNIQGLPTWFEVRVSGSGYLARRG” to “HMGGVEWLTHPIGPRDSLQVLARAGLEARPTSDGDYEIYGQERWPQRDQARLMGWLRRFGQWVWQALYDK”, the “soluble fraction (log2)” value falls from 0.01 to -0.378.

Going from “HMISKWGELVDLAVQLDIIQKSGSWFSMGDERIGQGANSVKDYLIANPDIAEKVEAEVRENLWKLN” to “HMTDIKYLIADGNDIKHWDTASSSYVKVSELPLTSDKFKIYGDDIYHKERTGIIAASPILKIWSPSAE”, the “soluble fraction (log2)” value rises from -0.129 to 0.369.

For “HMNTGIPHQEVIKKLYSFAEGGDWKGLKEELNRIKEYTLFYNSVKELADSFEINRLIEKLKTYIF”, the “soluble fraction (log2)” value was 0.0146.
